Source: patent publication US20090192084A1

Columns and labels:
p97-Myc = p97-Myc co-IP, 293 cells, MudPIT MS
Cullin 2 (human) [1] = target: Cullin 2 (human) (UniProt Q13617); test: Flag co-IP, MudPIT MS, MG132
Cullin 2 (human) [2] = target: Cullin 2 (human) (UniProt Q13617); test: Flag co-IP, MudPIT MS, DMSO
VCIP135 (human) = target: T1, VCIP135 (human) (UniProt Q96JH7); test: Flag co-IP, 293 cells, MudPIT MS
T1 sequence (looked up): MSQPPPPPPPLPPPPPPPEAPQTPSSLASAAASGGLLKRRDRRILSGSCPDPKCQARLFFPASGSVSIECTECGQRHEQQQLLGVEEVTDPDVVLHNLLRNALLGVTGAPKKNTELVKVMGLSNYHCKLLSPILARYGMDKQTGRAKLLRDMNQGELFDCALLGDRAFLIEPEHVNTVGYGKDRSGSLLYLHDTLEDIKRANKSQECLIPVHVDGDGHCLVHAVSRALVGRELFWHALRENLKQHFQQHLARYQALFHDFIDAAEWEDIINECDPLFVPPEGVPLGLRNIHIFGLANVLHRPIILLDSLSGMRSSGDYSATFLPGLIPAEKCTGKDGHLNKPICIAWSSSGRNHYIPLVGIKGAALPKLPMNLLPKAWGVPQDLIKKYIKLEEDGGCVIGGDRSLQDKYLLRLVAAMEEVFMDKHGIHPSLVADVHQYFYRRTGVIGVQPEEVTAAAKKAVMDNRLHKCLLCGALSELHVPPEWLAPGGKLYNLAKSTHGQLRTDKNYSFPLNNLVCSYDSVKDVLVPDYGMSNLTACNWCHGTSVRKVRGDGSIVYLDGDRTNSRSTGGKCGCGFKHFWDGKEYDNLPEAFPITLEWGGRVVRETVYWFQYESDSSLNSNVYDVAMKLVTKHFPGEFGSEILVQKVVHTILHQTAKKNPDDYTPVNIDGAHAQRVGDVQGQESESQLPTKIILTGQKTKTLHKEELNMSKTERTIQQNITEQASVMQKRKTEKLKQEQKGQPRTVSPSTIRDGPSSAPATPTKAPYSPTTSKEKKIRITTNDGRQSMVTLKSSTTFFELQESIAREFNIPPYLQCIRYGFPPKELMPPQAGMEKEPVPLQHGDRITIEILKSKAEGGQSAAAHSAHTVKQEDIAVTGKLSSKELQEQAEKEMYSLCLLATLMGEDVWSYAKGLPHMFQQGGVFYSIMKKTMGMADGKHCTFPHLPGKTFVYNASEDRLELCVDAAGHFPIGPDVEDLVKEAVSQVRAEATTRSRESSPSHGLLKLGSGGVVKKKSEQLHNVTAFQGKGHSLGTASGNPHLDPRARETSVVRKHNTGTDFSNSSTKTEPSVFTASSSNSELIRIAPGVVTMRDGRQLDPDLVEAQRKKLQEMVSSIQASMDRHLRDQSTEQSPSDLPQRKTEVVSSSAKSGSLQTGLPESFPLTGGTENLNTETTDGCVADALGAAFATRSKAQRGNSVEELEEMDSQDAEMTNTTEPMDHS

endogenous UFD1 (human) = target: T2, endogenous UFD1 (human) (UniProt Q92890); test: Flag co-IP, 293 cells, MudPIT MS
T2 sequence (looked up): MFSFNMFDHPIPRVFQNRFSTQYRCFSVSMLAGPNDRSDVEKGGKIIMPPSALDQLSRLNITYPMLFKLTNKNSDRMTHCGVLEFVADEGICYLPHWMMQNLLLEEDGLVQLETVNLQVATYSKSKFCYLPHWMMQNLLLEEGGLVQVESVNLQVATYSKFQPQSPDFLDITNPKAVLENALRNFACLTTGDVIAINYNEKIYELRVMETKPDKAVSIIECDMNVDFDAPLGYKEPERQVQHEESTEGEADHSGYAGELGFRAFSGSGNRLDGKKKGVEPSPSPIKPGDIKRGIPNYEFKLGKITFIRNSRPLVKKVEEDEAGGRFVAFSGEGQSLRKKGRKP

endogenous p97 (human) = endogenous p97 (human) (UniProt P55072); test: Flag co-IP, 293 cells, MudPIT MS
Sequence of endogenous p97 (human) (P55072 2-806 limits assumed): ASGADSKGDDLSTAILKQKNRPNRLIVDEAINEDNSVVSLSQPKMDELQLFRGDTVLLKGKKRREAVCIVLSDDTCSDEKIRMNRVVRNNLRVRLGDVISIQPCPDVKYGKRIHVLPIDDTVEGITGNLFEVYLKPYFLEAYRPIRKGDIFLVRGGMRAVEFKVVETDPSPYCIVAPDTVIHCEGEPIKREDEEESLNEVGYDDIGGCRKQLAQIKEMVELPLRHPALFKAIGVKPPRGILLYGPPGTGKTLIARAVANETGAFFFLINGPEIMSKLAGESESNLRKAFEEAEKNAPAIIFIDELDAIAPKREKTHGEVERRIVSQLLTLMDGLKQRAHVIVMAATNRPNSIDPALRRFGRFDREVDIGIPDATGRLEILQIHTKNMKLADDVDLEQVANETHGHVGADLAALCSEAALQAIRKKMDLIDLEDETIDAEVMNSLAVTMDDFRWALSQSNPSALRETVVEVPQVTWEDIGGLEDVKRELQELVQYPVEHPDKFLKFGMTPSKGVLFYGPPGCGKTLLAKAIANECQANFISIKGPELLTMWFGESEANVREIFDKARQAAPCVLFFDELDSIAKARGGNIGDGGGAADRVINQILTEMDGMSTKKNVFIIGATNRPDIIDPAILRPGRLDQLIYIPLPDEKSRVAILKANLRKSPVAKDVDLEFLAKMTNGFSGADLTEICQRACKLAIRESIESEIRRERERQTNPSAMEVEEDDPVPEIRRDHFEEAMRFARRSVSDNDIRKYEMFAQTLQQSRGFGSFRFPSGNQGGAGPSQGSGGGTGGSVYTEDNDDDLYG

Sequence of Cullin 2 (human) (Q13617 whole entry): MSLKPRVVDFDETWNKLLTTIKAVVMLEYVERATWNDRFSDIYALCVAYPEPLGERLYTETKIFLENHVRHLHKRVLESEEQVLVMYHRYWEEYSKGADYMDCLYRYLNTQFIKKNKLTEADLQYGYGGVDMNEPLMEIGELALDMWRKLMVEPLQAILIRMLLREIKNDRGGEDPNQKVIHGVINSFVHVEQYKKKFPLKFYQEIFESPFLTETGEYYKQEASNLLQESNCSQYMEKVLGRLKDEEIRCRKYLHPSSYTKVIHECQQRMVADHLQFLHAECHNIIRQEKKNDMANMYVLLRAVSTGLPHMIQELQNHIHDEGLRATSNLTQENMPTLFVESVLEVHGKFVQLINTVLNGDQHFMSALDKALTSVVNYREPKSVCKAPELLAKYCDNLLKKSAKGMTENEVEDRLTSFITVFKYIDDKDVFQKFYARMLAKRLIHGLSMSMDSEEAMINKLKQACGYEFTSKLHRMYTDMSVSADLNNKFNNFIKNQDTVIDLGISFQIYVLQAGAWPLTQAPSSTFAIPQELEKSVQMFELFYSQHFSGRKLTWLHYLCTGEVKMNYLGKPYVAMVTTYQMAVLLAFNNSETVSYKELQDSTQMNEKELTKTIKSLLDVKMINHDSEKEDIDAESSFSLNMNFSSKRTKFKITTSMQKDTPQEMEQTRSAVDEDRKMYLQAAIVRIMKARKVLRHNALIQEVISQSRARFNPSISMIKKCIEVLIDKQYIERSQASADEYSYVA
Sequence of p97-Myc (Q01853 2-806): as the sequence (P55072 2-806 limits assumed) above

B1: endogenous p47 (protein, human, UniProt Q9UNZ2 1-370, looked up)
chain: MAAERQEALREFVAVTGAEEDRARFFLESAGWDLQIALASFYEDGGDEDIVTISQATPSSVSRGTAPSDNRVTSFRDLIHDQDEDEEEEEGQRFYAGGSERSGQQIVGPPRKKSPNELVDDLFKGAKEHGAVAVERVTKSPGETSKPRPFAGGGYRLGAAPEEESAYVAGEKRQHSSQDVHVVLKLWKSGFSLDNGELRSYQDPSNAQFLESIRRGEVPAELRRLAHGGQVNLDMEDHRDEDFVKPKGAFKAFTGEGQKLGSTAPQVLSTSSPAQQAENEAKASSSILIDESEPTTNIQIRLADGGRLVQKFNHSHRISDIRLFIVDARPAMAATSFILMTTFPNKELADESQTLKEANLLNAVIVQRLT
For B1, the sequence count (p97-Myc) was 19, the sequence coverage (p97-Myc) was 52.2% and the spectrum count (p97-Myc) was 153.

B2: Flag-SAKS1 (protein, UniProt Q04323 1-297, looked up, not shown: small tags and cut ends)
chain: MAELTALESLIEMGFPRGRAEKALALTGNQGIEAAMDWLMEHEDDPDVDEPLETPLGHILGREPTSSEQGGLEGSGSAAGEGKPALSEEERQEQTKRMLELVAQKQREREEREEREALERERQRRRQGQELSAARQRLQEDEMRRAAEERRREKAEELAARQRVREKIERDKAERAKKYGGSVGSQPPPVAPEPGPVPSSPSQEPPTKREYDQCRIQVRLPDGTSLTQTFRAREQLAAVRLYVELHRGEELGGGQDPVQLLSGFPRRAFSEADMERPLQELGLVPSAVLIVAKKCPS
B2 gave an abundance factor (AF) (Cullin 2 (human) [1]) of 5.5, a sequence count (Cullin 2 (human) [1]) of 4 and a spectrum count (Cullin 2 (human) [1]) of 11. It also gave an abundance factor (AF) (Cullin 2 (human) [2]) of 3.7, a sequence count (Cullin 2 (human) [2]) of 3 and a spectrum count (Cullin 2 (human) [2]) of 4.

B3: endogenous UBXD8 (protein, human, UniProt Q96CS3 2-445, looked up)
chain: AAPEERDLTQEQTEKLLQFQDLTGIESMDQCRHTLEQHNWNIEAAVQDRLNEQEGVPSVFNPPPSRPLQVNTADHRIYSYVVSRPQPRGLLGWGYYLIMLPFRFTYYTILDIFRFALRFIRPDPRSRVTDPVGDIVSFMHSFEEKYGRAHPVFYQGTYSQALNDAKRELRFLLVYLHGDDHQDSDEFCRNTLCAPEVISLINTRMLFWACSTNKPEGYRVSQALRENTYPFLAMIMLKDRRMTVVGRLEGLIQPDDLINQLTFIMDANQTYLVSERLEREERNQTQVLRQQQDEAYLASLRADQEKERKKREERERKRRKEEEVQQQKLAEERRRQNLQEEKERKLECLPPEPSPDDPESVKIIFKLPNDSRVERRFHFSQSLTVIHDFLFSLKESPEKFQIEANFPRRVLPCIPSEEWPNPPTLQEAGLSHTEVLFVQDLTDE
With B3 the sequence count (p97-Myc) was 11, the sequence coverage (p97-Myc) was 33.7% and the spectrum count (p97-Myc) was 12.

B4: endogenous SAKS1 (protein, human, UniProt Q04323 2-297, looked up)
chain: AELTALESLIEMGFPRGRAEKALALTGNQGIEAAMDWLMEHEDDPDVDEPLETPLGHILGREPTSSEQGGLEGSGSAAGEGKPALSEEERQEQTKRMLELVAQKQREREEREEREALERERQRRRQGQELSAARQRLQEDEMRRAAEERRREKAEELAARQRVREKIERDKAERAKKYGGSVGSQPPPVAPEPGPVPSSPSQEPPTKREYDQCRIQVRLPDGTSLTQTFRAREQLAAVRLYVELHRGEELGGGQDPVQLLSGFPRRAFSEADMERPLQELGLVPSAVLIVAKKCPS
In the case of B4, the sequence count (p97-Myc) is reported as 2, the sequence coverage (p97-Myc) is reported as 19.5% and the spectrum count (p97-Myc) is reported as 2.

B5: endogenous p37 (protein, human, UniProt Q14CS0 2-331, looked up)
chain: AEGGGPEPGEQERRSSGPRPPSARDLQLALAELYEDEVKCKSSKSNRPKATVFKSPRTPPQRFYSSEHEYSGLNIVRPSTGKIVNELFKEAREHGAVPLNEATRASGDDKSKSFTGGGYRLGSSFCKRSEYIYGENQLQDVQILLKLWSNGFSLDDGELRPYNEPTNAQFLESVKRGEIPLELQRLVHGGQVNLDMEDHQDQEYIKPRLRFKAFSGEGQKLGSLTPEIVSTPSSPEEEDKSILNAVVLIDDSVPTTKIQIRLADGSRLIQRFNSTHRILDVRNFIVQSRPEFAALDFILVTSFPNKELTDESLTLLEADILNTVLLQQLK
B5 showed a sequence count (p97-Myc) of 6, a sequence coverage (p97-Myc) of 32.3% and a spectrum count (p97-Myc) of 7.

B6: Flag-UBXD8 (protein, UniProt Q96CS3 1-445, looked up, not shown: small tags and cut ends)
chain: MAAPEERDLTQEQTEKLLQFQDLTGIESMDQCRHTLEQHNWNIEAAVQDRLNEQEGVPSVFNPPPSRPLQVNTADHRIYSYVVSRPQPRGLLGWGYYLIMLPFRFTYYTILDIFRFALRFIRPDPRSRVTDPVGDIVSFMHSFEEKYGRAHPVFYQGTYSQALNDAKRELRFLLVYLHGDDHQDSDEFCRNTLCAPEVISLINTRMLFWACSTNKPEGYRVSQALRENTYPFLAMIMLKDRRMTVVGRLEGLIQPDDLINQLTFIMDANQTYLVSERLEREERNQTQVLRQQQDEAYLASLRADQEKERKKREERERKRRKEEEVQQQKLAEERRRQNLQEEKERKLECLPPEPSPDDPESVKIIFKLPNDSRVERRFHFSQSLTVIHDFLFSLKESPEKFQIEANFPRRVLPCIPSEEWPNPPTLQEAGLSHTEVLFVQDLTDE
For B6, the abundance factor (AF) (Cullin 2 (human) [1]) was 10.3, the sequence count (Cullin 2 (human) [1]) was 8 and the spectrum count (Cullin 2 (human) [1]) was 38. For the same binder, the abundance factor (AF) (Cullin 2 (human) [2]) was 2.4, the sequence count (Cullin 2 (human) [2]) was 4 and the spectrum count (Cullin 2 (human) [2]) was 12.

B7: Flag-p47 (protein, UniProt O35987 1-370, looked up, not shown: small tags and cut ends)
chain: MAEERQDALREFVAVTGAEEDRARFFLESAGWDLQIALASFYEDGGDEDIVTISQATPSSVSRGTAPSDNRVTSFRDLIHDQDEEEEEEEGQRFYAGGSERSGQQIVGPPRKKSPNELVDDLFKGAKEHGAVAVERVTKSPGETSKPRPFAGGGYRLGAAPEEESAYVAGERRRHSGQDVHVVLKLWKTGFSLDNGDLRSYQDPSNAQFLESIRRGEVPAELRRLAHGGQVNLDMEDHRDEDFVKPKGAFKAFTGEGQKLGSTAPQVLNTSSPAQQAENEAKASSSILINEAEPTTNIQIRLADGGRLVQKFNHSHRISDIRLFIVDARPAMAATSFVLMTTFPNKELADENQTLKEANLLNAVIVQRLT
B7 showed a sequence count (VCIP135 (human)) of 14, a sequence coverage (VCIP135 (human)) of 17.6% and a spectrum count (VCIP135 (human)) of 15.

B8: Flag-NPL4 (protein, UniProt Q8TAT6 2-608, looked up, species assumed)
Nuclear protein localization protein 4 homolog: AESIIIRVQSPDGVKRITATKRETAATFLKKVAKEFGFQNNGFSVYINRNKTGEITASSNKSLNLLKIKHGDLLFLFPSSLAGPSSEMETSVPPGFKVFGAPNVVEDEIDQYLSKQDGKIYRSRDPQLCRHGPLGKCVHCVPLEPFDEDYLNHLEPPVKHMSFHAYIRKLTGGADKGKFVALENISCKIKSGCEGHLPWPNGICTKCQPSAITLNRQKYRHVDNIMFENHTVADRFLDFWRKTGNQHFGYLYGRYTEHKDIPLGIRAEVAAIYEPPQIGTQNSLELLEDPKAEVVDEIAAKLGLRKVGWIFTDLVSEDTRKGTVRYSRNKDTYFLSSEECITAGDFQNKHPNMCRLSPDGHFGSKFVTAVATGGPDNQVHFEGYQVSNQCMALVRDECLLPCKDAPELGYAKESSSEQYVPDVFYKDVDKFGNEITQLARPLPVEYLIIDITTTFPKDPVYTFSISQNPFPIENRDVLGETQDFHSLATYLSQNTSSVFLDTISDFHLLLFLVTNEVMPLQDSISLLLEAVRTRNEELAQTWKRSEQWATIEQLCSTVGGQLPGLHEYGAVGGSTHTATAAMWACQHCTFMNQPGTGHCEMCSLPRT
modifications: N-terminal Flag tag
In the case of B8, the sequence count (endogenous UFD1 (human)) is reported as 14, the sequence coverage (endogenous UFD1 (human)) is reported as 37.9% and the spectrum count (endogenous UFD1 (human)) is reported as 22. It also gave a sequence count (VCIP135 (human)) of 2, a sequence coverage (VCIP135 (human)) of 2.5% and a spectrum count (VCIP135 (human)) of 2. It also gave a sequence count (endogenous p97 (human)) of 79, a sequence coverage (endogenous p97 (human)) of 70.4% and a spectrum count (endogenous p97 (human)) of 414.

B9: endogenous UBXD4 (protein, human, UniProt P68543 1-259, looked up)
chain: MKDVDNLKSIKEEWVCETGSDNQPLGNNQQSNCEYFVDSLFEEAQKVSSKCVSPAEQKKQVDVNIKLWKNGFTVNDDFRSYSDGASQQFLNSIKKGELPSELQGIFDKEEVDVKVEDKKNEICLSTKPVFQPFSGQGHRLGSATPKIVSKAKNIEVENKNNLSAVPLNNLEPITNIQIWLANGKRIVQKFNITHRVSHIKDFIEKYQGSQRSPPFSLATALPVLRLLDETLTLEEADLQNAVIIQRLQKTASFRELSEH
Binder B9 has a sequence count (p97-Myc) of 4, a sequence coverage (p97-Myc) of 19.3% and a spectrum count (p97-Myc) of 5.
